The assay addresses mouse ART2 (ART2.2) on T cells (mouse) (UniProt O35975). Briefly: cell-based or functional assay.

Our source for the ADP-ribosylation of CD4 T cells (eNAD staining, flow cytometry) and ADP-ribosylation of CD8 T cells (eNAD staining, flow cytometry) values is US20250382381A1.

Chain of mouse ART2 (ART2.2) on T cells (mouse) (O35975 21-260): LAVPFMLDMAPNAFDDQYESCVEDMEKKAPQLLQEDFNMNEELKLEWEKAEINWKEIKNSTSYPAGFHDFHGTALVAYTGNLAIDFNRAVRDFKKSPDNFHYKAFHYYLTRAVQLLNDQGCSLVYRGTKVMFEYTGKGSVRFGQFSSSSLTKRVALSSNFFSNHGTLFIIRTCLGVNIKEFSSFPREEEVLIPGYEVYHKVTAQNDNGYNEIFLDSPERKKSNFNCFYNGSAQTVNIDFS

As to ART2-blocking nanobody (s+16a) (VHH), the ADP-ribosylation of CD4 T cells (eNAD staining, flow cytometry) was 9.3% and the ADP-ribosylation of CD8 T cells (eNAD staining, flow cytometry) turned out to be 12.9%.
